Data as given in patent US20240018502A1.
Substitutions are numbered along the chain they refer to. Names may count otherwise.

B1: MTSP-1 protease domain I41D/F97T/F99L/C122S/G151N/Q192T/D217A (enzyme)
chain: VVGGTDADEGEWPWQVSLHALGQGHDCGASLISPNWLVSAAHCYIDDRGFRYSDPTQWTAFLGLHDQSQRSAPGVQERRLKRIISHPFFNDTTLDYDIALLELEKPAEYSSMVRPISLPDASHVFPAGKAIWVTGWGHTQYGGTNALILQKGEIRVINQTTCENLLPQQITPRMMCVGFLSGGVDSCTGDSGGPLSSVEADGRIFQAGVVSWGAGCAQRNKPGVYTRLPLFRDWIKENTGV
B2: MTSP-1 protease domain I41S/C122S/G151N/Q175D/Q192R (enzyme)
chain: B1 chain with D26S, T92F, L94F, Q169D, T188R, A214D
B3: MTSP-1 protease domain I41G/F97A/F99L/C122S/G151N/Q175M/Q192S (enzyme)
chain: B1 chain with D26G, T92A, Q169M, T188S, A214D
B4: MTSP-1 I41E/F99L/C122S/G151N/Q192T (enzyme)
chain: B1 chain with D26E, T92F, A214D
B5: MTSP-1 protease domain I41D/F97T/F99L/C122S/G151N/Q175S/D217A (enzyme)
chain: B1 chain with Q169S, T188Q
B6: MTSP-1 protease domain Q38H/I41S/Y60gW/C122S/G151H/Q192A (enzyme)
chain: B1 chain with Q23H, D26S, Y52W, T92F, L94F, N145H, T188A, A214D
B7: MTSP-1 protease domain I41G/F99L/C122S/G151N/Q175R/Q192A (enzyme)
chain: B1 chain with D26G, T92F, Q169R, T188A, A214D
B8: MTSP-1 I41D/Y59F/D96E/F99L/C122S/G151N/Q192T (enzyme)
chain: B1 chain with Y44F, D91E, T92F, A214D
B9: MTSP-1 protease domain I41E/F97S/F99L/C122S/Q175L/Q192V/D217A (enzyme)
chain: B1 chain with D26E, T92S, N145G, Q169L, T188V
B10: MTSP-1 protease domain I41D/F97T/F99L/C122S/G151N/Q192T (enzyme)
chain: B1 chain with A214D
B11: MTSP-1 protease domain I41E/F99L/C122S/G151N/Q175L/Q192A (enzyme)
chain: B1 chain with D26E, T92F, Q169L, T188A, A214D
B12: MTSP-1 protease domain F97E/F99L/C122S/Q175H/Q192V/D217P (enzyme)
chain: B1 chain with D26I, T92E, N145G, Q169H, T188V, A214P
B13: MTSP-1 protease domain I41S/F99M/C122S/G151N/Q175E/Q192R (enzyme)
chain: B1 chain with D26S, T92F, L94M, Q169E, T188R, A214D
B14: MTSP-1 I41D/C122S/G151N/Q192T (enzyme)
chain: B1 chain with T92F, L94F, A214D
B15: MTSP-1 protease domain Q38S/I41S/Y60gW/F99L/C122S/G151D/Q192T (enzyme)
chain: B1 chain with Q23S, D26S, Y52W, T92F, N145D, A214D
B16: MTSP-1 protease domain Q38K/I41R/Y60gG/F99L/C122S/G151N/Q192G (enzyme)
chain: B1 chain with Q23K, D26R, Y52G, T92F, T188G, A214D
B17: MTSP-1 protease domain Q38L/I41R/Y60gF/F99L/C122S/G151N/Q192A (enzyme)
chain: B1 chain with Q23L, D26R, Y52F, T92F, T188A, A214D
B18: MTSP-1 protease domain Q38F/I41S/Y60gA/C122S/G151N/Q192R (enzyme)
chain: B1 chain with Q23F, D26S, Y52A, T92F, L94F, T188R, A214D
B19: MTSP-1 protease domain I41D/F97T/F99L/C122S/G151N/Q175S/Q192T (enzyme)
chain: B1 chain with Q169S, A214D
B20: MTSP-1 protease domain I41G/F97L/F99L/C122S/G151N/Q192V/D217L (enzyme)
chain: B1 chain with D26G, T92L, T188V, A214L
B21: MTSP-1 protease domain I41S/F97Q/F99L/C122S/Q175W/Q192V/D217R (enzyme)
chain: B1 chain with D26S, T92Q, N145G, Q169W, T188V, A214R
B22: MTSP-1 protease domain I41S/F99M/C122S/G151N/Q175L/Q192G (enzyme)
chain: B1 chain with D26S, T92F, L94M, Q169L, T188G, A214D
B23: MTSP-1 protease domain I41D/F99L/C122S/G151N/Q192T/D217A (enzyme)
chain: B1 chain with T92F
B24: MTSP-1 protease domain Q38K/I41D/Y60gG/F99L/C122S/G151N (enzyme)
chain: B1 chain with Q23K, Y52G, T92F, T188Q, A214D
B25: MTSP-1 protease domain I41D/F99L/C122S/Q192T (enzyme)
chain: B1 chain with T92F, N145G, A214D
B26: MTSP-1 protease domain Q38R/I41S/Y60gW/F99L/C122S/G151N/Q192E (enzyme)
chain: B1 chain with Q23R, D26S, Y52W, T92F, T188E, A214D
B27: MTSP-1 protease domain I41S/F99M/C122S/G151N/Q175G/Q192R (enzyme)
chain: B1 chain with D26S, T92F, L94M, Q169G, T188R, A214D
B28: MTSP-1 protease domain I41G/F97V/F99L/C122S/G151N/Q192T/D217V (enzyme)
chain: B1 chain with D26G, T92V, A214V
B29: MTSP-1 protease domain I41D/F97R/F99L/C122S/Q175L/Q192T/D217I (enzyme)
chain: B1 chain with T92R, N145G, Q169L, A214I
B30: MTSP-1 protease domain I41G/F99L/C122S/G151N/Q192A (enzyme)
chain: B1 chain with D26G, T92F, T188A, A214D
B31: MTSP-1 protease domain I41S/F99M/C122S/G151N/Q175P/Q192S (enzyme)
chain: B1 chain with D26S, T92F, L94M, Q169P, T188S, A214D
B32: MTSP-1 I41D/Y59F/C122S/G151N/Q192T (enzyme)
chain: B1 chain with Y44F, T92F, L94F, A214D
B33: MTSP-1 protease domain F97T/F99L/C122S/G151N/Q175S/Q192T/D217A (enzyme)
chain: B1 chain with D26I, Q169S
B34: MTSP-1 protease domain I41E/C122S/G151N/Q175L/Q192A (enzyme)
chain: B1 chain with D26E, T92F, L94F, Q169L, T188A, A214D
B35: MTSP-1 protease domain F97L/F99L/C122S/Q175K/Q192V/D217M (enzyme)
chain: B1 chain with D26I, T92L, N145G, Q169K, T188V, A214M
B36: MTSP-1 protease domain I41S/C122S/G151N/Q175R/Q192R (enzyme)
chain: B1 chain with D26S, T92F, L94F, Q169R, T188R, A214D
B37: MTSP-1 protease domain I41E/F99L/C122S/G151N/Q175G/Q192T (enzyme)
chain: B1 chain with D26E, T92F, Q169G, A214D
B38: MTSP-1 protease domain I41E/F99L/C122S/G151N/Q192V (enzyme)
chain: B1 chain with D26E, T92F, T188V, A214D
B39: MTSP-1 protease domain I41E/F99L/C122S/G151N/Q192S (enzyme)
chain: B1 chain with D26E, T92F, T188S, A214D
B40: MTSP-1 protease domain I41E/F99L/C122S/G151N/Q175R/Q192T (enzyme)
chain: B1 chain with D26E, T92F, Q169R, A214D
B41: MTSP-1 protease domain Q38K/I41S/Y60gW/F99L/C122S/G151N/Q192G (enzyme)
chain: B1 chain with Q23K, D26S, Y52W, T92F, T188G, A214D
B42: MTSP-1 protease domain I41S/F99L/C122S/G151H/Q175L/Q192V (enzyme)
chain: B1 chain with D26S, T92F, N145H, Q169L, T188V, A214D
B43: MTSP-1 protease domain I41E/F99L/C122S/G151N/Q175R/Q192H (enzyme)
chain: B1 chain with D26E, T92F, Q169R, T188H, A214D
B44: MTSP-1 protease domain Q38K/I41G/Y60gW/F99L/C122S/G151N/Q192A (enzyme)
chain: B1 chain with Q23K, D26G, Y52W, T92F, T188A, A214D
B45: MTSP-1 protease domain I41D/F99L/C122S/Q175S/Q192T (enzyme)
chain: B1 chain with T92F, N145G, Q169S, A214D
B46: MTSP-1 protease domain F97E/F99L/C122S/G151A/Q192V (enzyme)
chain: B1 chain with D26I, T92E, N145A, T188V, A214D
B47: MTSP-1 protease domain Q38R/I41R/F99L/C122S/G151N/Q192G (enzyme)
chain: B1 chain with Q23R, D26R, T92F, T188G, A214D
B48: MTSP-1 protease domain I41S/F99L/C122S/G151N/Q175P/Q192V (enzyme)
chain: B1 chain with D26S, T92F, Q169P, T188V, A214D
B49: MTSP-1 protease domain I41D/F99L/C122S/G151N/Q192T (enzyme)
chain: B1 chain with T92F, A214D
B50: MTSP-1 protease domain I41D/F99L/C122S/G151N/Q175S/Q192T (enzyme)
chain: B1 chain with T92F, Q169S, A214D
B51: MTSP-1 I41S/F99L/C122S/G151N/Q192V (enzyme)
chain: B1 chain with D26S, T92F, T188V, A214D
B52: MTSP-1 protease domain Q38R/I41R/Y60gL/F99L/C122S/G151N/Q192G (enzyme)
chain: B1 chain with Q23R, D26R, Y52L, T92F, T188G, A214D
B53: MTSP-1 protease domain Q38K/I41G/Y60gG/F99L/C122S/G151N/Q192H (enzyme)
chain: B1 chain with Q23K, D26G, Y52G, T92F, T188H, A214D
B54: MTSP-1 protease domain Q38R/I41R/Y60gF/F99L/C122S/G151N/Q192G (enzyme)
chain: B1 chain with Q23R, D26R, Y52F, T92F, T188G, A214D
B55: MTSP-1 protease domain Q38R/I41G/Y60gG/F99M/C122S/G151N/Q192R (enzyme)
chain: B1 chain with Q23R, D26G, Y52G, T92F, L94M, T188R, A214D
B56: MTSP-1 protease domain F97R/ins97aI/T98P/C122S/Q175M/Q192V/D217I (enzyme)
chain: VVGGTDADEGEWPWQVSLHALGQGHICGASLISPNWLVSAAHCYIDDRGFRYSDPTQWTAFLGLHDQSQRSAPGVQERRLKRIISHPFFNDRIPFDYDIALLELEKPAEYSSMVRPISLPDASHVFPAGKAIWVTGWGHTQYGGTGALILQKGEIRVINQTTCENLLPQMITPRMMCVGFLSGGVDSCVGDSGGPLSSVEADGRIFQAGVVSWGIGCAQRNKPGVYTRLPLFRDWIKENTGV

biological target: plasma purified human complement protein C3 (human) (UniProt P01024); assay: cell-based or functional assay
Sequence (P01024 23-667, chain 1 of 2): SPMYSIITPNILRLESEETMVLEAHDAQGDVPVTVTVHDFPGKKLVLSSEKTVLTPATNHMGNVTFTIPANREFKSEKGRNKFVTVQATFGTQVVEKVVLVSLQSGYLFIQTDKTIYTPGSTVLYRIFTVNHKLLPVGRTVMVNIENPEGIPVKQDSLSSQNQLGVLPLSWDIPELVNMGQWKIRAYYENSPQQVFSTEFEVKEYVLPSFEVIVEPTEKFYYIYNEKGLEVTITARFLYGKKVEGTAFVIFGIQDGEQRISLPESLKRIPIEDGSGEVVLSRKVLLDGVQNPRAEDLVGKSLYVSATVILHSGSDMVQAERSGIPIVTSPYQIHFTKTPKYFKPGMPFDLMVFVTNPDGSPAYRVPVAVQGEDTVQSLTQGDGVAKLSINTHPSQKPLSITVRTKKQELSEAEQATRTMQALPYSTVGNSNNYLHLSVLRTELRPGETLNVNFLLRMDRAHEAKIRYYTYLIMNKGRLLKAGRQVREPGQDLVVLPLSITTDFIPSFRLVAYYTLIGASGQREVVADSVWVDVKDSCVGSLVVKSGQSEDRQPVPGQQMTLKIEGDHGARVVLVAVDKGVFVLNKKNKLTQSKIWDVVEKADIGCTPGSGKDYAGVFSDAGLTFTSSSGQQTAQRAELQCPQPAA
Sequence (P01024 672-1663, chain 2 of 2): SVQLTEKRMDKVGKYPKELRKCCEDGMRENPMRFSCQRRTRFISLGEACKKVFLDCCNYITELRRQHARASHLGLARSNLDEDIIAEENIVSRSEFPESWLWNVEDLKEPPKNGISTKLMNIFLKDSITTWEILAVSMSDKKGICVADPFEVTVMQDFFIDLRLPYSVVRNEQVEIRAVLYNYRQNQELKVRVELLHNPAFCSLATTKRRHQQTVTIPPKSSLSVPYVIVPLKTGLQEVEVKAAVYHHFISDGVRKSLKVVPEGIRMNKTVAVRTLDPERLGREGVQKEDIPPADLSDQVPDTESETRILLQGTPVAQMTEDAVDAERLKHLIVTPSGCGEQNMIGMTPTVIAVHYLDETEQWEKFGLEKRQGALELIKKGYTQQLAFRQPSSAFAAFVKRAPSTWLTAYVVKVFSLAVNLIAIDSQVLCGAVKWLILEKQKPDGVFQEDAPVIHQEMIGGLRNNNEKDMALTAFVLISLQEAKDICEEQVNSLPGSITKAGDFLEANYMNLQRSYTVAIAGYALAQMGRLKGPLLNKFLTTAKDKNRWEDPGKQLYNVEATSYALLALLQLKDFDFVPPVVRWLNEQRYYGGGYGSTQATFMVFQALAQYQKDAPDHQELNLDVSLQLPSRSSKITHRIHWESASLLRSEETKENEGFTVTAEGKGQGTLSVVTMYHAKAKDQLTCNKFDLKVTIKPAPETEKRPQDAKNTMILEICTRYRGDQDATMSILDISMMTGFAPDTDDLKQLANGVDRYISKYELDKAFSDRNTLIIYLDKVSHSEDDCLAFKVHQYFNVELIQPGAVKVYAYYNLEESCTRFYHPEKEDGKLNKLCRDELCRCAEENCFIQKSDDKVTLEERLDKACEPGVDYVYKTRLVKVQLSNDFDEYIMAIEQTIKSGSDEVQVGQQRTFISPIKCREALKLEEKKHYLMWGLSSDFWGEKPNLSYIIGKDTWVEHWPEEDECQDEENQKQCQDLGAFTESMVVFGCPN

EC50 hC3 cleavage [nM] | EC50 of hC3 cleavage [nM] | Binder
70.4 | – | B1
96.8 | – | B2
73.1 | – | B3
– | 124 | B4
25.5 | – | B5
8.96 | – | B6
74.5 | – | B7
– | 54.9 | B8
89.9 | – | B9
84.3 | – | B10
28.5 | – | B11
7770 | – | B12
297 | – | B13
– | 85.2 | B14
15 | – | B15
335 | – | B16
151 | – | B17
33.1 | – | B18
56.7 | – | B19

EC50 hC3 cleavage [nM] | EC50 of hC3 cleavage [nM] | Binder
112 | – | B20
50.6 | – | B21
62 | – | B22
45.1 | – | B23
52.7 | – | B24
59.4 | – | B25
116 | – | B26
95.3 | – | B27
30.5 | – | B28
5.72 | – | B29
61 | – | B30
139 | – | B31
– | 56.7 | B32
172 | – | B33
45 | – | B34
463 | – | B35
134 | – | B36
30.2 | – | B37
156 | – | B38

EC50 hC3 cleavage [nM] | EC50 of hC3 cleavage [nM] | Binder
112 | – | B39
155 | – | B40
35.1 | – | B41
20.9 | – | B42
102 | – | B43
9.96 | – | B44
27.4 | – | B45
1040 | – | B46
248 | – | B47
35.8 | – | B48
47 | – | B49
28.6 | – | B50
– | 34.4 | B51
388 | – | B52
17.9 | – | B53
197 | – | B54
147 | – | B55
23.6 | – | B56
